From US20220289795, “EFFICIENT METHOD FOR PREPARING PPR PROTEIN AND USE OF THE SAME” (EditForce, Inc., published 2022)
Numbering of substitutions follows the chain as printed.

What was measured:
[1] = target: MS2 coat protein (NL_MS2_HIS) (UniProt P03612 SEQ:194-322); assay: ELONA; RPB-ELISA; non-target RNA; conditions: tags: N-term luciferase, C-term 6xHis; chain copies: 2; label: 5'-biotin
v3.1_PPR24 = target: T1, v3.1_PPR24 (Artificial Sequence); assay: ELONA; RPB-ELISA; conditions: tags: luciferase fusion; label: 5'-biotin
T1 chain: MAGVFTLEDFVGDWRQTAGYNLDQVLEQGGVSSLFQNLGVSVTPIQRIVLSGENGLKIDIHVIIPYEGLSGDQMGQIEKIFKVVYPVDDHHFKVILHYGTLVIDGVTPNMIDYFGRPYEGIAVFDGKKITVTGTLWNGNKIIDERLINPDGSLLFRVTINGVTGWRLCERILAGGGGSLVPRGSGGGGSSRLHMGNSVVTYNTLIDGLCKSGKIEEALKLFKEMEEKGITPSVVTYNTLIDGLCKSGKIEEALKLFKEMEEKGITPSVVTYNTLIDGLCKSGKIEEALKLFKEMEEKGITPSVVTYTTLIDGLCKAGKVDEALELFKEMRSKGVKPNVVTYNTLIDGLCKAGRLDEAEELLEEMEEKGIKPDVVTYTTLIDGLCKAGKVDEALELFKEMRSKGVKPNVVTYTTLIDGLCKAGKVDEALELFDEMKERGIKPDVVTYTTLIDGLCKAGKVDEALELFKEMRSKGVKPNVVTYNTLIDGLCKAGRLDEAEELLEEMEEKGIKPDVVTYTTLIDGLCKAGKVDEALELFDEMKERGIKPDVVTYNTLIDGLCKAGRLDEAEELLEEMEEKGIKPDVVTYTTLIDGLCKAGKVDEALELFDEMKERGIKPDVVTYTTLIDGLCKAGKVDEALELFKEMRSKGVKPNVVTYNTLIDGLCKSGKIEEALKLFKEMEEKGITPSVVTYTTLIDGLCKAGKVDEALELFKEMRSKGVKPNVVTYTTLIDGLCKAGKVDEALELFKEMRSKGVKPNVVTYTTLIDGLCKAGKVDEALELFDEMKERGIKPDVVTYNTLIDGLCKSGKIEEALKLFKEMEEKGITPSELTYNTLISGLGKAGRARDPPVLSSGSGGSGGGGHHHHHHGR

NL_v2_PPR23 = target: T2, NL_v2_PPR23 (Artificial Sequence); assay: ELONA; RPB-ELISA; conditions: tags: N-term luciferase, C-term 6xHis; label: 5'-biotin
T2 chain: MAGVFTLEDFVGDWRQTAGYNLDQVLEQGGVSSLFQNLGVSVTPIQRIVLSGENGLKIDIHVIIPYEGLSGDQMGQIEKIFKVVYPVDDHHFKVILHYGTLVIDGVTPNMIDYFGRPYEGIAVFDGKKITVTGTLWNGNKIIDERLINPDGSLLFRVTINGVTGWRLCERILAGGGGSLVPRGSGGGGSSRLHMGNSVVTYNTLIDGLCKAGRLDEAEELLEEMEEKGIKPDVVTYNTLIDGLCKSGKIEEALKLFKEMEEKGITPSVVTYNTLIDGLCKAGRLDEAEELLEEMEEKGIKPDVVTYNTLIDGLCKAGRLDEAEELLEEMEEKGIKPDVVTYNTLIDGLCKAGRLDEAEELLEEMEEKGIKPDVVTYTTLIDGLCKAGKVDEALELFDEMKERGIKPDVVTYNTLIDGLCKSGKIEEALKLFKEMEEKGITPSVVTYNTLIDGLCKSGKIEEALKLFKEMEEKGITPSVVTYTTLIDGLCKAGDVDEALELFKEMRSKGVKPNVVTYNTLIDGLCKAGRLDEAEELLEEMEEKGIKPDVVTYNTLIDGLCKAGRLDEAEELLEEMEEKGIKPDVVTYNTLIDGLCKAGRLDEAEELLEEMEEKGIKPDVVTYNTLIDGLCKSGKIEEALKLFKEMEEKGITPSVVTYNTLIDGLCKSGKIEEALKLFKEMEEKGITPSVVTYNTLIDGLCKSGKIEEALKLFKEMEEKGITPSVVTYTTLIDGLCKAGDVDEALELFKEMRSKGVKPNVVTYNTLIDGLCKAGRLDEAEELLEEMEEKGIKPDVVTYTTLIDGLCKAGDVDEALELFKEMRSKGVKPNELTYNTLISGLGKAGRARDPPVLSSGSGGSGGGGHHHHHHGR

v3.1_PPR23 = target: T3, v3.1_PPR23 (Artificial Sequence); assay: ELONA; RPB-ELISA; conditions: tags: luciferase fusion; label: 5'-biotin
T3 chain: T2 chain with D493K, D738K, D808K

NL_v2_PPR22 = target: T4, NL_v2_PPR22 (Artificial Sequence); assay: ELONA; RPB-ELISA; conditions: tags: N-term luciferase, C-term 6xHis; label: 5'-biotin
T4 chain: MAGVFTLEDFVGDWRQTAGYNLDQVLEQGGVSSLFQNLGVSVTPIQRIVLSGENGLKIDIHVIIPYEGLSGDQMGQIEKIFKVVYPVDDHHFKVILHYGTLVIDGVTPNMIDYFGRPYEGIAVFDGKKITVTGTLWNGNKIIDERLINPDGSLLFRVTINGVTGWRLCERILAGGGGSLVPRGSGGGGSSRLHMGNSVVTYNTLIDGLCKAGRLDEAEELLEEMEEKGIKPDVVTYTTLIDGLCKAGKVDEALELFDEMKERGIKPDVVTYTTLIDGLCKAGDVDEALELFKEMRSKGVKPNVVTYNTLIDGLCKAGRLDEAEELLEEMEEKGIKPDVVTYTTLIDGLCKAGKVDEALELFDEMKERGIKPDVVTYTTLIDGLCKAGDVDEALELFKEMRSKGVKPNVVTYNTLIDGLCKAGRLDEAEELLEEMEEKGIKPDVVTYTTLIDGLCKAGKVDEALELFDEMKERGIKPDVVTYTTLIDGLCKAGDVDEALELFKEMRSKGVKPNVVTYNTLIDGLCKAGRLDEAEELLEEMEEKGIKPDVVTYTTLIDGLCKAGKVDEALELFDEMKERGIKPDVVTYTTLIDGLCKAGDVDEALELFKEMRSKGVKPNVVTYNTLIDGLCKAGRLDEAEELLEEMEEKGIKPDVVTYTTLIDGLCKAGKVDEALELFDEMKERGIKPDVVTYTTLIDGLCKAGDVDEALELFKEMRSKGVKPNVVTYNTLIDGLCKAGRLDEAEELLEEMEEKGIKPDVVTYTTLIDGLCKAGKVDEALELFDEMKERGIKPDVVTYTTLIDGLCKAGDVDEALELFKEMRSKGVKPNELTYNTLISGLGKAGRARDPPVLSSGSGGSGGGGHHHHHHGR

v3.1_PPR22 = target: T5, v3.1_PPR22 (Artificial Sequence); assay: ELONA; RPB-ELISA; conditions: tags: luciferase fusion; label: 5'-biotin
T5 chain: T4 chain with D283K, D388K, D493K, D598K, D703K, D808K

MS2 coat protein (NL_MS2_HIS), sequence (P03612 2-130): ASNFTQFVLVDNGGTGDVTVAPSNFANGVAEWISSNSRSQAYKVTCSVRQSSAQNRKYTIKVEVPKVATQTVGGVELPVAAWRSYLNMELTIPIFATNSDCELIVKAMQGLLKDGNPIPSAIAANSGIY

B1: RNA_51 (ssRNA)
RNA: GACAUGCUGGUGUAUCUUGUCUUUAGACUG
binding result [1]: no binding

B2: RNA_24 (ssRNA)
RNA: GACAUGCCCCAUAGAUGUGACAAGCGACUG
binding signal (v3.1_PPR24): 5.5e+07 luminescence

B3: RNA_23 (ssRNA)
RNA: GACAUGCUCUUUGCCAUUUCCCAUAGACUG
binding signal (NL_v2_PPR23): 2.6e+07 luminescence | binding signal (v3.1_PPR23): 5.3e+07 luminescence

B4: RNA_22 (ssRNA)
RNA: GACAUGCUGAUGAUGAUGAUGAUGAGACUG
binding signal (NL_v2_PPR22): 5.6e+07 luminescence | binding signal (v3.1_PPR22): 5.5e+07 luminescence
